Entries after “also recorded” stand apart in the source; their conditions may differ.

In data set [1] the test system is U87MG human glioblastoma cells. Kind of data set: Potentiation of R2FasL by chemotherapeutic agents, resazurin cell viability assay. Format: cell-based. Particulars: 72 hours drug (Bis VIII 1 μM, camptothecin 20 nM, etoposide 5 μM), then R2FasL 10 μL/well for 40 hours. For orientation: Resazurin is reduced to fluorescent resorufin, in cell work by metabolically active cells.
Method: U87MG human glioblastoma cells were plated in 96-well plates in 100 μL of complete medium with 10% fetal calf serum at 25,000 cells/well. Forty-eight hours later cells were treated with either bisindolylmaleimide VIII (Bis VIII, final concentration 1 μM), camptothecin (final concentration 20 nM), etoposide (final concentration 5 μM), or DMSO vehicle (1 μL/well). Bis VIII, camptothecin, and etoposide (all from Biomol) were dissolved in DMSO and added at 1 μL/well. After 72 hours of drug exposure, cells were treated with FLAG antibody affinity-purified R2FasL solution (10 μL/well), and incubated for an additional 40 hours. Cell viability and cytotoxicity were assayed using the resazurin assay and the LDG release assay, respectively, as described above.

Data set [2] deals with Jurkat cells. Kind of data set: Jurkat cell killing, viable cell counting after trypan blue staining. In kind it is cell-based, human. Here is the method:
(§1) Apoptosis and cytotoxicity was assayed by three assays: cell counting, FACS analysis of Annexin V positive cells, and LDH (lactate dehydrogenase) release. For cell counting of Jurkat cells, 100 uL of cell suspension was mixed with an equal volume of Trypan blue stain (0.4%), and kept at room temperature for 2 minutes. Live cells were counted using a hemocytometer in triplicate. Mean number of cells/visual field and SEM were calculated using InStat statistical software. For FACS analysis, the Annexin-V-Fluos kit from Roche was used according to the manufacturer's protocol. […] The percent of the cell population that was apototic (Annexin-V-positive and propidium iodide-negative) was determined. […] 25 μL of supernatant in triplicate was mixed with LDH detection reagent, and LDH activity quantified by measuring absorbance at 492 nm. Mean and SEM was calculated using InStat statistical software.
Jurkat cells were plated in 24-well plates (500,000 cells in 500 μl/well) and were treated with increasing volumes of conditioned medium obtained from Cos-7 cells transfected either with either control plasmid pSV/Neo or plasmid pBJ/FlkFasL. […] Thirty-two hours later viable cells were counted after trypan blue staining. […]

The test system of data set [3] is T-47D human breast cancer cells. Kind of data set: LDH release cytotoxicity assay in breast cancer cells. Format: cell-based. Here is the method:
Apoptosis and cytotoxicity was assayed by three assays: cell counting, FACS analysis of Annexin V positive cells, and LDH (lactate dehydrogenase) release. For cell counting of Jurkat cells, 100 uL of cell suspension was mixed with an equal volume of Trypan blue stain (0.4%), and kept at room temperature for 2 minutes. Live cells were counted using a hemocytometer in triplicate. Mean number of cells/visual field and SEM were calculated using InStat statistical software. For FACS analysis, the Annexin-V-Fluos kit from Roche was used according to the manufacturer's protocol. Briefly, after treatment with FlkFasL or control conditioned medium±VEGF-165 (2 nM, from Peprotech), Jurkat cells were pelleted and resuspended in 100 μL of Annexin-V-Fluos labeling solution (FITC-Annexin V plus propidium iodide) for 15 minutes at room temperature. FACS analysis was performed on a Becton Dickinson FACSCalibur™ using CellQuest Software, with gating to distinguish Annexin V-positive (apoptotic) versus negative cells, and propidium iodide-positive (i.e. necrotic) versus negative cells. The percent of the cell population that was apototic (Annexin-V-positive and propidium iodide-negative) was determined. […] 25 μL of supernatant in triplicate was mixed with LDH detection reagent, and LDH activity quantified by measuring absorbance at 492 nm. Mean and SEM was calculated using InStat statistical software. […]
(Release of lactate dehydrogenase indicates damage to the cell membrane.)

Data set [4] concerns Jurkat cells. As to the kind of experiment: Induction of apoptosis by FACS analysis of Annexin V-positive/propidium iodide-negative cells. Format: cell-based, human. The procedure: as §1
Jurkat cells were plated in 24-well plates (500,000 cells in 500 μl/well) and were treated with either 1 μL/well or 5 μL/well of conditioned medium obtained from Cos-7 cells transfected either with control plasmid pSV/Neo or plasmid pBJ/FlkFasL. […] Induction of apoptosis was assessed by FACS analysis of FITC-Annexin V-positive/propidium-iodide negative cells.
(In general: Flow cytometry measures light scatter and fluorescence of single cells or particles in a stream.)

Data set [5] has as its system T-47D human breast cancer cells. Kind of data set: Cell death in breast cancer cells, photographed 24 hours after treatment. Format: cell-based. The settings on record: 25 μL conditioned medium plus 2 nM VEGF-165, 24 hours. The procedure:
T-47D human breast cancer cells were plated in 24-well plates (500,000 cells in 500 μl/well) and grown to confluence. Cells were treated with 25 μL/well of conditioned medium from Cos-7 cells transfected either with control plasmid pSV/Neo or plasmid FlkFasL. Cells were also treated with 2 nM VEGF-165 or without. Cells were photographed 24 hours after treatment.

In data set [6] the test system is Jurkat E6.1 human T cells. Kind of data set: Jurkat cell viability, resazurin (AlamarBlue) assay. Format: cell-based. The procedure:
Conditioned medium (0.001, 0.01, 0.1, 1, or 10 μL) from Cos7 cells transfected with pFLAG/R1[D2]FasL vector was added in the absence or presence of rhVEGF-165 (final concentration 2 nM). Twenty-two hours later cell viability was assayed using the resazurin assay (AlamarBlue reagent from BioSource). Conversion of AlamarBlue substrate to product by viable cells was determined by adding 20 μL of AlamarBlue to each well and measuring absorbance at 540 nm and […]. Calculation of % conversion of substrate to product was performed according to the manufacturer's protocol.
To investigate which growth factors activate R1[D2]FasL the following experiment was performed. […] All growth factors were used at a final concentration of 10 nM, and were from Peprotech or R&D Systems. Nineteen hours later cell viability was assayed using the resazurin assay as described above.
In a similar experiment, the concentration of the growth factors tested was varied. […] Conditioned medium from Cos7 cells transfected with either pFLAG/R2FasL vector or empty pFLAG vector was added (1 μL/well), in the absence or presence of rhVEGF-165 or rmVEGF-165 at the final concentrations of 0.001, 0.01, 0.1, 1, and 10 nM. Eighteen hours later cell viability was assayed using the resazurin assay as described herein.
To determine the ED50 for hVEGF-165 on R1[D2]FasL the following experiment was performed. […] Conditioned medium from Cos7 cells transfected with pFLAG/R1[D2]FasL vector was added (2 μL/well), in the absence or presence of rhVEGF-165 at 0, 0.01, 0.1, 1, 10, 100, 1,000, or 10,000 nM. Nineteen hours later cell viability was assayed using the resazurin assay as described above.
In a similar experiment the ED50 for hVEGF-165 on R2FasL was determined. […] Conditioned medium from Cos7 cells transfected with pFLAG/R2FasL vector was added in the volumes indicated, in the absence or presence of rhVEGF-165 at the final concentrations of […], 0.2 and 2 nM. Eighteen hours later cell viability was assayed using the resazurin assay. The ED50 for rhVEGF-165 was between 20 pM and 200 pM (FIG. 21B).

As to `COc1cc([C@@H]2c3cc4c(cc3[C@@H](O[C@@H]3O[C@@H]5CO[C@@H](C)O[C@H]5[C@H](O)[C@H]3O)[C@H]3COC(=O)[C@H]23)OCO4)cc(OC)c1O` [etoposide], the “potentiation of R2FasL apoptotic activity (cell viability)” value in data set [1] was “Potentiation of R2FasL apoptotic activity”.

As for `Cn1cc(C2=C(c3cn(CCCN)c4ccccc34)C(=O)NC2=O)c2ccccc21` [BisVIII, bisindolylmaleimide VIII], in data set [1], the “potentiation of R2FasL apoptotic activity (cell viability)” value is given as “Potentiation of R2FasL apoptotic activity”.

B1: FlkFasL: Fusion of mouse Flk-1 (VEGFR-2) signal sequence and Ig-like domains 1-3, linker, human FasL amino acids 139-281; SEQ ID NO:22 (protein)
chain: MESKALLAVALWFCVETRAASVGLPGDFLHPPKLSTQKDILTILANTTLQITCRGQRDLDWLWPNAQRDSEERVLVTECGGGDSIFCKTLTIPRVVGNDTGAYKCSYRDVDIASTVYVYVRDYRSPFIASVSDQHGIVYITENKNKTVVIPCRGSISNLNVSLCARYPEKRFVPDGNRISWDSEIGFTLPSYMISYAGMVFCEAKINDETYQSIMYIVVVVGYRIYDVILSPPHEIELSAGEKLVLNCTARTELNVGLDFTWHSPPSKSHHKKIVNRDVKPFPGTVAKMFLSTLTIESVTKSDQGEYTCVASSGRMIKRNRTFVRVHTKPFIAFGSARGTSEKKELRKVAHLTGKSNSRSMPLEWEDTYGIVLLSGVKYKKGGLVINETGLYFVYSKVYFRGQSCNNLPLSHKVYMRNSKYPQDLVMMEGKMMSYCTTGQMWARSSYLGAVFNLTSADHLYVNVSELSLVNFEESQTFFGLYKL
Consider B1, for which, in data set [2] (25 μL/well conditioned medium, varying amounts of VEGF-165, 24 hours), the “killing of Jurkat cells as function of VEGF amount” value was “dependent on the amount of VEGF”. Further, the “killing of Jurkat cells (viable cells per hemocytometer field)” value in data set [2] (increasing volumes of Cos-7 conditioned medium, with or without 2 nM VEGF-165, 32 hours) is recorded as “killing of Jurkat cells by FlkFasL in a VEGF-dependent manner”. The “cytotoxicity (LDH release) with exogenous VEGF” value in data set [3] (25 μL conditioned medium plus 2 nM VEGF-165, 48 hours) is reported as “drastic increase in cytotoxicity”. Also, the “cytotoxicity (LDH release), endogenous VEGF only” value in data set [3] (25 μL conditioned medium, no exogenous VEGF, 48 hours) is “induced cytotoxicity”. Also, the “induction of apoptosis (Annexin V-positive/propidium iodide-negative cells)” value in data set [4] (1 or 5 μL conditioned medium, with or without 2 nM VEGF-165, 60 minutes) is “induction of apoptosis by FlkFasL in a VEGF-dependent manner”. In addition, the “induction of apoptosis in the absence of VEGF” value in data set [4] (conditioned medium in the absence of VEGF) is on record as “did not increase apoptotic induction”. The “cell death with exogenous VEGF” value in data set [5] is “drastic increase in cell death; also recorded: drastically increased cell death”.

B2: R1[D2]FasL: Second domain of human VEGFR1 (amino acids 129 to 230) fused via ARGTS linker to hFasL amino acids 139 to 281 (protein)
chain: MSALLILALVGAAVADYKDDDDKLAAASDTGRPFVEMYSEIPEIIHMTEGRELVIPCRVTSPNITVTLKKFPLDTLIPDGKRIIWDSRKGFIISNATYKEIGLLTCEATVNGHLYKTNYLTHRQTNTIIARGTSEKKELRKVAHLTGKSNSRSMPLEWEDTYGIVLLSGVKYKKGGLVINETGLYFVYSKVYFRGQSCNNLPLSHKVYMRNSKYPQDLVMMEGKMMSYCTTGQMWARSSYLGAVFNLTSADHLYVNVSELSLVNFEESQTFFGLYKL
modifications: FLAG tag, preprotrypsin leader
Take B2: the “induction of apoptosis (cell viability)” value in data set [6] (0.001-10 μL conditioned medium, absence or presence of 2 nM rhVEGF-165, 22 hours) is “induces apoptosis in a VEGF-dependent manner”. In addition, in data set [6] (2 μL/well conditioned medium, rhVEGF-165, rmVEGF-164, rhVEGF-121, rhVEGF-165/rhPlGF-129 heterodimer, rhPlGF-129, each 10 nM, 19 hours), the “activation by growth factors (cell viability)” value is on record as “activated by all growth factors tested”.
